Experimental data reported in the supplement of paper PMC12783771.
± gives the standard deviation of the averaged measurements.

B1: library; numbered along this chain (parent)
chain: MNIQIGELAKRTACPVVTIRFYEQEGLLPPPGRSRGNFRLYGEEHVERLQFIRHCRSLDMPLSDVRTLLSYRKRPDQDCGEVNMLLDEHIRQVESRIGALLELKHHLVELREACSGARPAQSCGILQGLSDCVCDTRGTTAHPSD

What was measured:
[1] = variants of: B1; assay: sfGFP reporter fluorescence (15 h) (µM FITC); higher = higher leak; conditions: library round: Round 0; ligand: none
How it was run: (§1)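 PCR-made linear PbrR templates (Echo-normalized to 5 nM) were expressed in BL21 Star (DE3) extract (PANOx-SP) with pPbrR-sfGFP reporter plasmid and 30 μg/mL GamS. Reactions were 1 μL, Echo-assembled, with 1 µM lead chloride, 30 µM zinc acetate or no metal, incubated 15 hr at 30 °C. Endpoint sfGFP fluorescence (485/528 nm, Synergy Neo2) was converted to µM FITC via standard curves in 50 mM sodium borate pH 8.5. Up to three biological replicates.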

[2] = variants of: B1; assay: sfGFP reporter fluorescence (15 h) (µM FITC); higher = stronger transcriptional activation; conditions: library round: Round 0
How it was run: as §1

Variant	sfGFP reporter fluorescence [1]	sfGFP reporter fluorescence ([2]; ligand: 1 µM Pb)	sfGFP reporter fluorescence ([2]; ligand: 30 µM Zn)
MNIQIGELAKRTACPVVTIRFYEQEGLLPPPGRSRGNFRLYGKEHVERLQFIRHCRSLDMPLSDVRTLLSYRKRPDQDCGEVNMLLDEHIRQVESRIGALLELKHHLVELREACSGARPAQSCGILQGLSDCVCDTRGTTAHPSD [E43K]	0.0594	0.109 ± 0.02	2.36 ± 0.049
MNIQIGELAKRTACPVVTIRFYEQEGLLPPPGRSRGNFRLYGFEHVERLQFIRHCRSLDMPLSDVRTLLSYRKRPDQDCGEVNMLLDEHIRQVESRIGALLELKHHLVELREACSGARPAQSCGILQGLSDCVCDTRGTTAHPSD [E43F]	0.05846 ± 0.00026	0.0828 ± 0.015	0.99 ± 0.18
MNIQIGELAKRTACPVVTIRFYEQEGLLPPPGRSRGNFRLYGHEHVERLQFIRHCRSLDMPLSDVRTLLSYRKRPDQDCGEVNMLLDEHIRQVESRIGALLELKHHLVELREACSGARPAQSCGILQGLSDCVCDTRGTTAHPSD [E43H]	0.0669 ± 0.00078	0.0891 ± 0.013	0.629 ± 0.0098
MNIQIGELAKRTACPVVTIRFYEQEGLLPPPGRSRGNFRLYGIEHVERLQFIRHCRSLDMPLSDVRTLLSYRKRPDQDCGEVNMLLDEHIRQVESRIGALLELKHHLVELREACSGARPAQSCGILQGLSDCVCDTRGTTAHPSD [E43I]	0.05186 ± 0.00026	0.0806 ± 0.0093	1.11 ± 0.078
MNIQIGELAKRTACPVVTIRFYEQEGLLPPPGRSRGNFRLYGLEHVERLQFIRHCRSLDMPLSDVRTLLSYRKRPDQDCGEVNMLLDEHIRQVESRIGALLELKHHLVELREACSGARPAQSCGILQGLSDCVCDTRGTTAHPSD [E43L]	0.05113 ± 0.00026	0.0713 ± 0.007	1.01 ± 0.038
MNIQIGELAKRTACPVVTIRFYEQEGLLPPPGRSRGNFRLYGREHVERLQFIRHCRSLDMPLSDVRTLLSYRKRPDQDCGEVNMLLDEHIRQVESRIGALLELKHHLVELREACSGARPAQSCGILQGLSDCVCDTRGTTAHPSD [E43R]	0.0643 ± 0.00078	0.111 ± 0.025	2.24 ± 0.12
MNIQIGELAKRTACPVVTIRFYEQEGLLPPPGRSRGNFRLYGGEHVERLQFIRHCRSLDMPLSDVRTLLSYRKRPDQDCGEVNMLLDEHIRQVESRIGALLELKHHLVELREACSGARPAQSCGILQGLSDCVCDTRGTTAHPSD [E43G]	0.0583 ± 0.0021	0.0883 ± 0.001	0.924 ± 0.066
MNIQIGELAKRTACPVVTIRFYEQEGLLPPPGRSRGNFRLYGNEHVERLQFIRHCRSLDMPLSDVRTLLSYRKRPDQDCGEVNMLLDEHIRQVESRIGALLELKHHLVELREACSGARPAQSCGILQGLSDCVCDTRGTTAHPSD [E43N]	0.0577 ± 0.006	0.0828 ± 0.0036	1.21 ± 0.02
MNIQIGELAKRTACPVVTIRFYEQEGLLPPPGRSRGNFRLYGSEHVERLQFIRHCRSLDMPLSDVRTLLSYRKRPDQDCGEVNMLLDEHIRQVESRIGALLELKHHLVELREACSGARPAQSCGILQGLSDCVCDTRGTTAHPSD [E43S]	0.06102 ± 0.00026	0.0889 ± 0.015	1.41 ± 0.17
MNIQIGELAKRTACPVVTIRFYEQEGLLPPPGRSRGNFRLYGVEHVERLQFIRHCRSLDMPLSDVRTLLSYRKRPDQDCGEVNMLLDEHIRQVESRIGALLELKHHLVELREACSGARPAQSCGILQGLSDCVCDTRGTTAHPSD [E43V]	0.0605 ± 0.0015	0.0883 ± 0.014	1.17 ± 0.089
MNIQIGELAKRTACPVVTIRFYEQEGLLPPPGRSRGNFRLYGTEHVERLQFIRHCRSLDMPLSDVRTLLSYRKRPDQDCGEVNMLLDEHIRQVESRIGALLELKHHLVELREACSGARPAQSCGILQGLSDCVCDTRGTTAHPSD [E43T]	0.06341 ± 0.00052	0.104 ± 0.0054	1.5 ± 0.14
MNIQIGELAKRTACPVVTIRFYEQEGLLPPPGRSRGNFRLYGPEHVERLQFIRHCRSLDMPLSDVRTLLSYRKRPDQDCGEVNMLLDEHIRQVESRIGALLELKHHLVELREACSGARPAQSCGILQGLSDCVCDTRGTTAHPSD [E43P]	0.05736 ± 0.00026	0.0674 ± 0.0093	0.7191 ± 0.0047
MNIQIGELAKRTACPVVTIRFYEQEGLLPPPGRSRGNFRLYGMEHVERLQFIRHCRSLDMPLSDVRTLLSYRKRPDQDCGEVNMLLDEHIRQVESRIGALLELKHHLVELREACSGARPAQSCGILQGLSDCVCDTRGTTAHPSD [E43M]	0.0597 ± 0.0047	0.099 ± 0.0047	1.33 ± 0.083
MNIQIGELAKRTACPVVTIRFYEQEGLLPPPGRSRGNFRLYGQEHVERLQFIRHCRSLDMPLSDVRTLLSYRKRPDQDCGEVNMLLDEHIRQVESRIGALLELKHHLVELREACSGARPAQSCGILQGLSDCVCDTRGTTAHPSD [E43Q]	0.0614 ± 0.0018	0.076 ± 0.0029	1.16 ± 0.18
